# Experimental data taken from IntAct's records for PubMed 26192437.
# B1: CDK5 regulatory subunit-associated protein 2 (Homo sapiens), Q96SN8 (parent)
# chain: MMDLVLEEDVTVPGTLSGCSGLVPSVPDDLDGINPNAGLGNGLLPNVSEETVSPTRARNMKDFENQITELKKENFNLKLRIYFLEERMQQEFHGPTEHIYKTNIELKVEVESLKRELQEREQLLIKASKAVESLAEAGGSEIQRVKEDARKKVQQVEDLLTKRILLLEKDVTAAQAELEKAFAGTETEKALRLRLESKLSEMKKMHEGDLAMALVLDEKDRLIEELKLSLKSKEALIQCLKEEKSQMACPDENVSSGELRGLCAAPREEKERETEAAQMEHQKERNSFEERIQALEEDLREKEREIATEKKNSLKRDKAIQGLTMALKSKEKKVEELNSEIEKLSAAFAKAREALQKAQTQEFQGSEDYETALSGKEALSAALRSQNLTKSTENHRLRRSIKKITQELSDLQQERERLEKDLEEAHREKSKGDCTIRDLRNEVEKLRNEVNEREKAMENRYKSLLSESNKKLHNQEQVIKHLTESTNQKDVLLQKFNEKDLEVIQQNCYLMAAEDLELRSEGLITEKCSSQQPPGSKTIFSKEKKQSSDYEELIQVLKKEQDIYTHLVKSLQESDSINNLQAELNKIFALRKQLEQDVLSYQNLRKTLEEQISEIRRREEESFSLYSDQTSYLSICLEENNRFQVEHFSQEELKKKVSDLIQLVKELYTDNQHLKKTIFDLSCMGFQGNGFPDRLASTEQTELLASKEDEDTIKIGEDDEINFLSDQHLQQSNEIMKDLSKGGCKNGYLRHTESKISDCDGAHAPGCLEEGAFINLLAPLFNEKATLLLESRPDLLKVVRELLLGQLFLTEQEVSGEHLDGKTEKTPKQKGELVHFVQTNSFSKPHDELKLSCEAQLVKAGEVPKVGLKDASVQTVATEGDLLRFKHEATREAWEEKPINTALSAEHRPENLHGVPGWQAALLSLPGITNREAKKSRLPILIKPSRSLGNMYRLPATQEVVTQLQSQILELQGELKEFKTCNKQLHQKLILAEAVMEGRPTPDKTLLNAQPPVGAAYQDSPGEQKGIKTTSSVWRDKEMDSDQQRSYEIDSEICPPDDLASLPSCKENPEDVLSPTSVATYLSSKSQPSAKVSVMGTDQSESINTSNETEYLKQKIHDLETELEGYQNFIFQLQKHSQCSEAIITVLCGTEGAQDGLSKPKNGSDGEEMTFSSLHQVRYVKHVKILGPLAPEMIDSRVLENLKQQLEEQEYKLQKEQNLNMQLFSEIHNLQNKFRDLSPPRYDSLVQSQARELSLQRQQIKDGHGICVISRQHMNTMIKAFEELLQASDVDYCVAEGFQEQLNQCAELLEKLEKLFLNGKSVGVEMNTQNELMERIEEDNLTYQHLLPESPEPSASHALSDYETSEKSFFSRDQKQDNETEKTSVMVNSFSQDLLMEHIQEIRTLRKRLEESIKTNEKLRKQLERQGSEFVQGSTSIFASGSELHSSLTSEIHFLRKQNQALNAMLIKGSRDKQKENDKLRESLSRKTVSLEHLQREYASVKEENERLQKEGSEKERHNQQLIQEVRCSGQELSRVQEEVKLRQQLLSQNDKLLQSLRVELKAYEKLDEEHRRLREASGEGWKGQDPFRDLHSLLMEIQALRLQLERSIETSSTLQSRLKEQLARGAEKAQEGALTLAVQAVSIPEVPLQPDKHDGDKYPMESDNSFDLFDSSQAVTPKSVSETPPLSGNDTDSLSCDSGSSATSTPCVSRLVTGHHLWASKNGRHVLGLIEDYEALLKQISQGQRLLAEMDIQTQEAPSSTSQELGTKGPHPAPLSKFVSSVSTAKLTLEEAYRRLKLLWRVSLPEDGQCPLHCEQIGEMKAEVTKLHKKLFEQEKKLQNTMKLLQLSKRQEKVIFDQLVVTHKILRKARGNLELRPGGAHPGTCSPSRPGS
# Variants of: B1
# Conditions: with tbg1_human TUBG1, P23258
# Chain of tbg1_human TUBG1, P23258 (P23258 whole entry): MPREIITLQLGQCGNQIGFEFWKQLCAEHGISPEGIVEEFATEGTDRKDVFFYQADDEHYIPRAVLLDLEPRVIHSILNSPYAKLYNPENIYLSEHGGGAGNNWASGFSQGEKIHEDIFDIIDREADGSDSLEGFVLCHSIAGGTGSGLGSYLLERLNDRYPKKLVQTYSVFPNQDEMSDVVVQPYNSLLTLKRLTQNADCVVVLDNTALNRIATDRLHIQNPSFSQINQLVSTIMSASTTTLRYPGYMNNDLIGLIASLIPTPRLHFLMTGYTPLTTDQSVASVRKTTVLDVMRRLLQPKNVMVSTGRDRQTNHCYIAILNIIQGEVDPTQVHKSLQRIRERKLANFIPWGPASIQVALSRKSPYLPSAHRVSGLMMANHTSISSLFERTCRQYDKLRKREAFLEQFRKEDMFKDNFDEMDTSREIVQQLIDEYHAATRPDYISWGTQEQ
row,Variant,effect of a mutation on the interaction
1,S140A,decreasing interaction strength
